For 1 substance, stoichiometry N and Kd results are on record in publication PMC13370731.

Assay [1] addresses MtrR‐His6 (small protein MtrR with a C‐terminal His‐tag, heterologously expressed in Escherichia coli) (Methanosarcina mazei Gö1). The experiment in a line: SEC; IMAC‐purified MtrR‐His6 on an Enrich SEC 70 column, detection at 214 nm, calibrated with a standard protein mixture; phosphate buffer (50 mM sodium phosphate, 300 mM NaCl, pH 8.0); peaks at 10 and 13 mL.
For assay [2], the target named is soluble domain of the MtrA subunit (M1 – S168), strep‐tagged, RED‐labeled (Methanosarcina mazei Gö1) (UniProt O59640). Put plainly: MST; 20 nM RED‐labeled strep‐MtrA with MtrR‐His6 in 16 concentrations (calculated on monomeric molecular mass); standard capillaries, 100% excitation power, medium MST power; MO.AFFINITY analysis; two biological replicates.
Chain of UniProt O59640 (O59640 1-168): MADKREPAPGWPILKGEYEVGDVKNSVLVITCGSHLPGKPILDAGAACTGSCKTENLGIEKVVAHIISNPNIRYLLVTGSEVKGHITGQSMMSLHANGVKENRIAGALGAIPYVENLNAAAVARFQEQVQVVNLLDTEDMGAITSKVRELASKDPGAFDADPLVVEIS

pKd: −log10 of the molar value. Where “and” joins values, the source holds several entries; their conditions need not be identical. Equal entries are not always repeated.

Consider “MtrR‐His6 (small protein MtrR with a C‐terminal His‐tag, heterologously expressed in Escherichia coli) (natural protein)”, for which, in assay [1], the stoichiometry N was 2 and < 6. Besides, in assay [2], the negative logarithm of the Kd (pKd) was 6.96.
